Test results as given in IntAct's records for PubMed 12700764.

target: mef2b_human MEF2B (UniProt Q02080)
Sequence (Q02080 whole entry): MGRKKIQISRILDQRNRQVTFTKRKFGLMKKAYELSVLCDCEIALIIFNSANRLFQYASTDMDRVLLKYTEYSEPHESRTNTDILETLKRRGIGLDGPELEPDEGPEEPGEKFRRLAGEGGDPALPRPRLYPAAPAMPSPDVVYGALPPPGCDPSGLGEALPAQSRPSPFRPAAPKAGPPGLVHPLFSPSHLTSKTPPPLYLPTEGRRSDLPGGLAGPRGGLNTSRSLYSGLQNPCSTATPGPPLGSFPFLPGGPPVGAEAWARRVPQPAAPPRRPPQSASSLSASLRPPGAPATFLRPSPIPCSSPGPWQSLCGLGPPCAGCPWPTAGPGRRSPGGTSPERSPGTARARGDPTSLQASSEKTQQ

Substance | effect of a mutation on the interaction
Calcineurin-binding protein cabin-1 (Homo sapiens), Q9Y6J0 I2176A | decreasing interaction strength
Calcineurin-binding protein cabin-1 (Homo sapiens), Q9Y6J0 L2172A | disrupting interaction strength
Calcineurin-binding protein cabin-1 (Homo sapiens), Q9Y6J0 L2172K | disrupting interaction strength
Calcineurin-binding protein cabin-1 (Homo sapiens), Q9Y6J0 L2172W | disrupting interaction strength
Calcineurin-binding protein cabin-1 (Homo sapiens), Q9Y6J0 Q2170A | with no effect
Calcineurin-binding protein cabin-1 (Homo sapiens), Q9Y6J0 Q2170W | with no effect
